{"source": "paper PMC3809612", "biological_target": "rat collagen (Type I collagen), coated on 96-well plates (rat) (UniProt P02454)", "sequence (P02454 152-1207, chain 1 of 2)": "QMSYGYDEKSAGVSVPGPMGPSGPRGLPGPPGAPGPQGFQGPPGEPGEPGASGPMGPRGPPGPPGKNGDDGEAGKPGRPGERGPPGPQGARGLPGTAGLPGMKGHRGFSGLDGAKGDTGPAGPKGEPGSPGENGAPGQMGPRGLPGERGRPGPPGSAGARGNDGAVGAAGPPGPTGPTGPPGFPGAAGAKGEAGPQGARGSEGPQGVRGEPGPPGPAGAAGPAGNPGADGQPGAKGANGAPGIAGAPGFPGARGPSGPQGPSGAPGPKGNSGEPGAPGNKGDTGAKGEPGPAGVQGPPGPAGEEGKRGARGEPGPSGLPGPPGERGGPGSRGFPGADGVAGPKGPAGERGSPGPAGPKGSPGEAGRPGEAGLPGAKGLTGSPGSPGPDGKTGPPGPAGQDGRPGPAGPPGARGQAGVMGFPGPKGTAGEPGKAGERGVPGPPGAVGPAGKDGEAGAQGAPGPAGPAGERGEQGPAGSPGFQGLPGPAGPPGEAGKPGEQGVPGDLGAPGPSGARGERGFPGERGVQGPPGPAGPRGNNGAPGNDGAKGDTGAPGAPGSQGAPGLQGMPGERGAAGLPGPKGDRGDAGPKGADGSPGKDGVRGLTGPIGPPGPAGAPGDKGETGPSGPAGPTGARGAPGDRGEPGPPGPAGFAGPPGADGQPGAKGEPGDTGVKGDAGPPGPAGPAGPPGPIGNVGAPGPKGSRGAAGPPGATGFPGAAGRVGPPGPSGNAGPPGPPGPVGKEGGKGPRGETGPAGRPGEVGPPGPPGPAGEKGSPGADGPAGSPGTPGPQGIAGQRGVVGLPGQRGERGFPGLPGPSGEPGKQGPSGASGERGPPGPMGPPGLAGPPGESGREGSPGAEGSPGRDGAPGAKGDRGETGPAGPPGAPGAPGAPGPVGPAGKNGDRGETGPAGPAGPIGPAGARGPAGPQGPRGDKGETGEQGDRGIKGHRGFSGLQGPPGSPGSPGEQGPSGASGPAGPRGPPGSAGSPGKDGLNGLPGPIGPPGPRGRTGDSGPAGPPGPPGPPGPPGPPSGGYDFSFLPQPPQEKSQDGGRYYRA", "sequence (P02466 86-1125, chain 2 of 2, further chain)": "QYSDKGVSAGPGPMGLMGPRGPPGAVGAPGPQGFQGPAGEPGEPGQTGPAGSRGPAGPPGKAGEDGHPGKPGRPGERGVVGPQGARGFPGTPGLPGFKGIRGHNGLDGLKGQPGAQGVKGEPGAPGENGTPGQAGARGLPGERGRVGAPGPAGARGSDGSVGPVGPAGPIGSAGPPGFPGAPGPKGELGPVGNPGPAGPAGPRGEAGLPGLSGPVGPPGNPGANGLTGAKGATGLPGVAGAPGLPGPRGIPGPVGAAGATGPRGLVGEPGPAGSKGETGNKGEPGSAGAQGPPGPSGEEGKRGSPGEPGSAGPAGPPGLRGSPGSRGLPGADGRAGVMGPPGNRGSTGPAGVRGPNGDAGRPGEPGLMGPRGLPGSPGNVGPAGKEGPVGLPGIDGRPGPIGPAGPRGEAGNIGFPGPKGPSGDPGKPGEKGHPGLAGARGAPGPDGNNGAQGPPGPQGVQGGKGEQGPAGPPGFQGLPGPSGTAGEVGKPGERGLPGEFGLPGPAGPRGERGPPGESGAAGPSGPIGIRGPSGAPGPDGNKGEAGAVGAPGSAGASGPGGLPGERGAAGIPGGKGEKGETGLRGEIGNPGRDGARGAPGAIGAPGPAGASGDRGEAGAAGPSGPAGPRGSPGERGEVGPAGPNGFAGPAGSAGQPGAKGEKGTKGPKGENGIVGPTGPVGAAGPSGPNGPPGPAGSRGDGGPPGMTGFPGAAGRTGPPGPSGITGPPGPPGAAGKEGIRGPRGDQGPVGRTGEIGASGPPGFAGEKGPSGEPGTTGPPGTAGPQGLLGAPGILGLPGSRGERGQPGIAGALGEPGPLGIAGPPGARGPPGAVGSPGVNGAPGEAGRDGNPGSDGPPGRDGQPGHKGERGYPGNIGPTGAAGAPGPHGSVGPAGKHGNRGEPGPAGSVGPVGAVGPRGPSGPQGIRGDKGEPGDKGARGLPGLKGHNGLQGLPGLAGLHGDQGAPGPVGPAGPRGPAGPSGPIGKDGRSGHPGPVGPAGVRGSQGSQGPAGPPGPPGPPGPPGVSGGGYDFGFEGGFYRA", "experiment": "binding of fluorescent protein or nanoworm conjugate to coated 96-well plates", "data": [{"substance": "45-kDa gelatin-binding fibronectin proteolytic fragment, labelled with VivoTag-S750 (domain or fragment)", "values": [{"measurement": "fold increase in binding to heated collagen, normalized to collagen at 37 °C", "result": 7.2, "unit": "x"}, {"measurement": "half-maximal binding temperature (temperature to which the collagen was heated)", "result": 43.4, "unit": "°C"}]}, {"substance": "fibronectin fragment-conjugated iron oxide nanoworms", "values": [{"measurement": "fold increase in binding over unheated controls", "result": 6, "unit": "fold"}, {"measurement": "half-maximal binding temperature (temperature to which the collagen was heated)", "result": 41.7, "unit": "°C"}]}]}
